We go through two molecules from patent US20110158954A1, “METHOD FOR PRODUCING GAMMA DELTA T CELL POPULATION” (priority 2007, published 2011).

One data set relates to K562 cells. Briefly: Cytotoxic activity of cultured γδ T cell population, Calcein-AM release. In kind it is cell-based, human. As to conditions: γδ T cells expanded 14 days with pamidronate on immobilized FN fragment; target cells K526 (so in the source); E/T 30; 4 hours. The procedure:
The cytotoxic activity was determined for the cells on the fourteenth day from the initiation of culture prepared in Example 3-(1). The cytotoxic activity was evaluated by a method for assaying cytotoxic activity using Calcein-AM [Lichtenfels R. et al., J. Immunol. Methods 172(2), 227-239 (1994)]. […]
The cells on the fourteenth day from the initiation of culture prepared in Example 3-(1) were diluted with an RPMI 1640 medium containing 5% (v/v) human AB serum, 0.1 mM NEAA mixture, 1 mM sodium pyruvate (all manufactured by Cambrex), 2 mM L-glutamine, 10 μg/mL streptomycin sulfate (hereinafter referred to as “5HRPMI”) as effector cells, so as to have a concentration of 3×10^6 cells/mL. […] Upon the addition, the ratio of the effector cells (E) to the Calcein-labeled target cells (T) is expressed as an E/T ratio, and the measurements were made at an E/T ratio of 30. […] Thereafter, 100 μL of the culture supernatant was collected from each well, and the amount of Calcein released into the culture supernatant was determined with a fluorescence plate reader (Mithras LB 940, manufactured by BERTHOLD TECHNOLOGIES) (excited at 485 nm/measured at 535 nm). The “cytotoxic activity (%)” was calculated in accordance with the following formula.
Cytotoxic Activity (%)={(Measured Value in Each Well−Minimum Released Amount)/(Maximum Released Amount−Minimum Released Amount)}×100 […]

For another data set, the system named is γδ T cells. Nature of the data set: Expansion of γδ T cell population using pamidronate or IPP (Example 1). As to conditions: human PBMCs, IL-2 20 U/mL, immobilized FN fragment, day 14. In kind it is cell-based. The procedure: Apheresis was performed, or 50 mL blood was collected from human healthy donor obtained with informed consent. The collected blood was then diluted 2-folds with phosphate buffered saline (manufactured by NEXELL or SIGMA, hereinafter referred to as “PBS”), overlaid on Ficoll-paque (manufactured by GE Healthcare Bio-Science), and centrifuged at 600×g for 20 minutes. Peripheral blood mononuclear cells (hereinafter referred to as “PBMCs”) in an intermediate layer were collected with a pipette, and washed. The collected PBMCs were suspended in a storage solution composed of 90% (v/v) FBS (manufactured by MP Biomedicals, LLC)/10% (v/v) DMSO (manufactured by SIGMA), or a storage solution composed of equivolumes of CP-1 (manufactured by KYOKUTO PHARMACEUTICAL INDUSTRIAL CO., LTD.) containing 8% (w/v) human serum albumin (name of formulation: Buminate, manufactured by Baxter Limited, hereinafter referred as to “HSA”) and an RPMI 1640 medium (manufactured by SIGMA), and stored in liquid nitrogen. During expansion of γδ T cells, these stored PBMCs were rapidly melted in water bath at 37° C., and washed with RPMI 1640 medium containing 10 μg/mL DNase (manufactured by Calbiochem), 10% (v/v) human AB serum (manufactured by Cambrex), 2 mM L-glutamine (manufactured by Cambrex), and 100 μg/mL streptomycin sulfate (manufactured by MEIJI SEIKA KAISHA, LTD.) (hereinafter referred to as “10HRPMI+L-Gln”) or Iscove's Modified Dulbecco's Medium (IMDM) (manufactured by Invitrogen) containing 10 μg/mL DNase and 10% (v/v) human AB serum (hereinafter referred to as “10HIMDM”). Thereafter, the number of live cells was calculated by trypan blue staining method. The cells were subjected to each experiment.
A fibronectin fragment (hereinafter referred to as a “FN fragment”) (CH-296 and H296-H296) was immobilized on a culture equipment used in the following experiment. Concretely, a buffer having a pH of 5.0 composed of 2.20% (w/v) sodium citrate dihydrate, 0.80% (w/v) citric acid monohydrate and 2.20% (w/v) glucose (all manufactured by Nakalai Tesque Inc.) (hereinafter referred to as “ACD-A solution (pH 5.0)”), containing CH-296 (final concentration: 25 μg/mL) or H296-H296 (final concentration: 3 μg/mL), was added to a 24-well cell culture plate (manufactured by Becton Dickinson or Corning), in a volume of 240 μL each.
These culture equipments was incubated for 5 hours or more at room temperature. Immediately before use, the ACD-A solution (pH 5.0) containing CH-296 or H296-H296 was removed by aspiration from these culture equipments, and thereafter each well was washed with twice PBS, and then once with RPMI 1640 medium, and the culture equipments were subjected to each experiment. As a control, a plate to which nothing was immobilized was used.
PBMCs prepared in Example 1-(1) were suspended in 10HRPMI+L-Gln or 10HIMDM so as to have a concentration of 1×10^6 cells/mL, to prepare a cell suspension. Thereafter, the above-mentioned cell suspension was added to a plate to which nothing was immobilized or a plate immobilized with CH-296 or H296-H296, prepared in Example 1-(2), in a volume of 1 mL/well each. […]

Where [1] appears, read: medium 10HRPMI + L-Gln, stimulant pamidronate 5 μM.

“CH-296: polypeptide comprising a cell binding domain, a heparin binding domain and a CS-1 domain of fibronectin (SEQ ID NO: 13)”: in the data set with K562 cells, the “Cytotoxic Activity (%)” value is 25.45%. Besides, the “Expansion Fold of γδ T Cells (Folds) Fourteenth Day of Culture” value with γδ T cells (setting [1]) is “×3.85 Folds”.

B1: H296-H296: modified fibronectin fragment in which two H-296's are connected to each other (SEQ ID NO: 22) (protein)
chain: AIPAPTDLKFTQVTPTSLSAQWTPPNVQLTGYRVRVTPKEKTGPMKEINLAPDSSSVVVSGLMVATKYEVSVYALKDTLTSRPAQGVVTTLENVSPPRRARVTDATETTITISWRTKTETITGFQVDAVPANGQTPIQRTIKPDVRSYTITGLQPGTDYKIYLYTLNDNARSSPVVIDASTAIDAPSNLRFLATTPNSLLVSWQPPRARITGYIIKYEKPGSPPREVVPRPRPGVTEATITGLEPGTEYTIYVIALKNNQKSEPLIGRKKTDELPQLVTLPHPNLHGPEILDVPSTAMAIPAPTDLKFTQVTPTSLSAQWTPPNVQLTGYRVRVTPKEKTGPMKEINLAPDSSSVVVSGLMVATKYEVSVYALKDTLTSRPAQGVVTTLENVSPPRRARVTDATETTITISWRTKTETITGFQVDAVPANGQTPIQRTIKPDVRSYTITGLQPGTDYKIYLYTLNDNARSSPVVIDASTAIDAPSNLRFLATTPNSLLVSWQPPRARITGYIIKYEKPGSPPREVVPRPRPGVTEATITGLEPGTEYTIYVIALKNNQKSEPLIGRKKTDELPQLVTLPHPNLHGPEILDVPST
modifications: Fibronectin fragment named H296-H296
Regarding B1, the “Expansion Fold of γδ T Cells (Folds) Fourteenth Day of Culture” value is reported as “×4.39 Folds” with γδ T cells (medium 10HIMDM, stimulant IPP 5 μM); “×3.18 Folds” in the data set with γδ T cells (medium 10HIMDM, stimulant pamidronate 5 μM); “×16.27 Folds” in the data set on γδ T cells (medium 10HRPMI + L-Gln, stimulant IPP 5 μM); “×5.76 Folds” in the data set on γδ T cells (setting [1]).
